Experimental data taken from PMC9949253.

Target: BTN3A1 full intracellular domain (BFI) (human)
Assay: ITC; 300 μM BTN2A1 ID271 titrated into a mixture of 60 μM BTN3A1 BFI and 120 μM 4-M-HMBPP; nanoITC, independent fit (NanoAnalyze)

BTN2A1 intracellular domain (ID271) (domain or fragment)
KD with 4-M-HMBPP: 190 µM
N with 4-M-HMBPP: 0.08
dH with 4-M-HMBPP: -23.9 kcal/mol
